Data set [1] addresses T1, rRex (Streptococcus mutans UA159?) (UniProt Q8DU91).
T1 sequence: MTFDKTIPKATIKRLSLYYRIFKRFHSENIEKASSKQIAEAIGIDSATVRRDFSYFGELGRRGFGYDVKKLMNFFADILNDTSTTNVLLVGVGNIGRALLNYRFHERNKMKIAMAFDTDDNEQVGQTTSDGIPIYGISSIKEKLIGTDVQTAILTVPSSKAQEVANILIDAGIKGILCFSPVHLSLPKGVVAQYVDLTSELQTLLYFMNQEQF
The data set can be described thus: EMSA. The note with it: 20 mM Tris pH 8.0, 1 mM EDTA, 75 mM KCl, 2 mM DTT, 10% glycerol, 10 min at room temperature (+15 min after NAD+/NADH); 5% native PAGE.

Data set [2] deals with T2, rRex (UniProt Q8DU91 1-213).
T2 sequence: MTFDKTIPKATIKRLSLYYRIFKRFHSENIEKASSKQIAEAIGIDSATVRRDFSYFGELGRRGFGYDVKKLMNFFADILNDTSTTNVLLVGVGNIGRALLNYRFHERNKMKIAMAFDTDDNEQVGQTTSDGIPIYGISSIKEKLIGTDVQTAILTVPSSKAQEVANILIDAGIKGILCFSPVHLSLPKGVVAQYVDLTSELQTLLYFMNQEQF
The data set can be described thus: EMSA; 20 mM Tris pH 8.0, 1 mM EDTA, 75 mM KCl, 2 mM DTT, 10% glycerol, 10 min at room temperature (+15 min after NAD+/NADH); 5% native PAGE. To be noted: protein: recombinant; tags: N-terminal His (pQE30); blunt.

Data set [3] concerns the target T2, rRex. The data set can be described thus: competition; unlabeled competitor against biotinylated adhE1, dose-dependent; 20 mM Tris pH 8.0, 1 mM EDTA, 75 mM KCl, 2 mM DTT, 10% glycerol, 10 min at room temperature (+15 min after NAD+/NADH); 5% native PAGE. To be noted: protein: recombinant; tags: N-terminal His (pQE30); blunt.

As for “ATGACAGTTCCTCGCATTTTTAATTTATGTTATAATTATAAGTGAAAAACATCACATTTGAAAAGCCTTACAAATATCTTAAAAAATGACTTTTTATGACTTTTAGATGGGAGGTTTGCTTAGT (double strand) [frdC promoter]”, the binding entry in data set [1] was “binds”.
On the same count and under the same terms, under “ACAAGCCCATACTGAGTTTGGACATTAAAGCTCAGCAGGGCTATGATTATGATGTCATTATCATCGGCGGCGGTGTTTCAGGTGTGACTCTAGCC (double strand) [gshR promoter]” stands “binds”.

B1: mutated adhE Rex-box oligo m148Fw/m148Rv (dsDNA)
DNA 1: ATTTTTAACAGTAAAGGGTTACAATGACAAG
DNA 2: CTTGTCATTGTAACCCTTTACTGTTAAAAAT
Turning to B1, the binding result in data set [2] was “no binding”.

B2: adhE Rex-box oligo 148Fw/148Rv (dsDNA)
DNA 1: ATTTTTTTGTGAAAAGGGTTACAATGACAAG
DNA 2: CTTGTCATTGTAACCCTTTTCACAAAAAAAT
B2: the binding result in data set [2] is given as “binds”.

B3: adhE1 cold oligo (dsDNA)
DNA 1: TTTTGTGAAAAGGGTTACAATG
DNA 2: CATTGTAACCCTTTTCACAAAA
Regarding B3, the binding result in data set [3] is given as “binds”.
